Measurements reported in paper PMC3328385 (The Journal of Cell Biology, 2012).
Where a chain is given by its changes, count along the chain named. Names may count otherwise.

Columns and labels:
[1] = molecular target: t-SNAREs: syntaxin-1A/SNAP-25B, coexpressed, reconstituted in liposomes or supported bilayers (rat | mouse, UniProt P32851;P60879); test: liposome coflotation
native gel or EMSA = molecular target: the molecule itself; test: native gel or EMSA

Sequence of t-SNAREs: syntaxin-1A/SNAP-25B, coexpressed, reconstituted in liposomes or supported bilayers (P32851 whole entry, chain 1 of 2): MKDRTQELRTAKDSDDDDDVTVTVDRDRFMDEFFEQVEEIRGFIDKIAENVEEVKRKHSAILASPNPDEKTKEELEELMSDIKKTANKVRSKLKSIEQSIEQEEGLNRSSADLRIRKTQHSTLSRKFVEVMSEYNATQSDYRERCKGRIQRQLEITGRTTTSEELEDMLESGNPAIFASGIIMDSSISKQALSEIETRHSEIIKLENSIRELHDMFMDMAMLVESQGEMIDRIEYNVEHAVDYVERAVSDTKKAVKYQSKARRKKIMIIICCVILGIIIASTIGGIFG
Sequence of t-SNAREs: syntaxin-1A/SNAP-25B, coexpressed, reconstituted in liposomes or supported bilayers (P60879 whole entry, chain 2 of 2): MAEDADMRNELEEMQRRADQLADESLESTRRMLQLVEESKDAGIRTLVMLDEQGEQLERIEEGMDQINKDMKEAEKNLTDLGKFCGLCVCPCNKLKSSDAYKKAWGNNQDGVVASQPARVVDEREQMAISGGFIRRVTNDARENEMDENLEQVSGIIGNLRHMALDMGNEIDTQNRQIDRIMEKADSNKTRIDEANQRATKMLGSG

B1: Munc13-4 (wild type, His6-tagged human Munc13-4) (natural protein)
chain: MATLLSHPQQRPPFLRQAIKIRRRRVRDLQDPPPQMAPEIQPPSHHFSPEQRALLYEDALYTVLHRLGHPEPNHVTEASELLRYLQEAFHVEPEEHQQTLQRVRELEKPIFCLKATVKQAKGILGKDVSGFSDPYCLLGIEQGVGVPGGSPGSRHRQKAVVRHTIPEEETHRTQVITQTLNPVWDETFILEFEDITNASFHLDMWDLDTVESVRQKLGELTDLHGLRRIFKEARKDKGQDDFLGNVVLRLQDLRCREDQWYPLEPRTETYPDRGQCHLQFQLIHKRRATSASRSQPSYTVHLHLLQQLVSHEVTQHEAGSTSWDGSLSPQAATVLFLHATQKDLSDFHQSMAQWLAYSRLYQSLEFPSSCLLHPITSIEYQWIQGRLKAEQQEELAASFSSLLTYGLSLIRRFRSVFPLSVSDSPARLQSLLRVLVQMCKMKAFGELCPNTAPLPQLVTEALQTGTTEWFHLKQQHHQPMVQGIPEAGKALLGLVQDVIGDLHQCQRTWDKIFHNTLKIHLFSMAFRELQWLVAKRVQDHTTVVGDVVSPEMGESLFQLYISLKELCQLRMSSSERDGVLALDNFHRWFQPAIPSWLQKTYNEALARVQRAVQMDELVPLGELTKHSTSAVDLSTCFAQISHTARQLDWPDPEEAFMITVKFVEDTCRLALVYCSLIKARARELSSGQKDQGQAANMLCVVVNDMEQLRLVIGKLPAQLAWEALEQRVGAVLEQGQLQNTLHAQLQSALAGLGHEIRTGVRTLAEQLEVGIAKHIQKLVGVRESVLPEDAILPLMKFLEVELCYMNTNLVQENFSSLLTLLWTHTLTVLVEAAASQRSSSLASNRLKIALQNLEICFHAEGCGLPPKALHTATFQALQRDLELQAASSRELIRKYFCSRIQQQAETTSEELGAVTVKASYRASEQKLRVELLSASSLLPLDSNGSSDPFVQLTLEPRHEFPELAARETQKHKKDLHPLFDETFEFLVPAEPCRKAGACLLLTVLDYDTLGADDLEGEAFLPLREVPGLSGSEEPGEVPQTRLPLTYPAPNGDPILQLLEGRKGDREAQVFVRLRRHRAKQASQHALRPAP
fold increase in binding with Ca2+ against no Ca2+ [1]: 2.5 fold

B2: C2A* Munc13-4 (D127N/D133N) (natural protein)
chain: B1 chain with D127N, D133N
binding result (native gel or EMSA): binds | binding result [1]: binds

B3: C2B* Munc13-4 (D941N/D947N) (natural protein)
chain: B1 chain with D941N, D947N
binding result (native gel or EMSA): binds | binding result [1]: binds

B4: C2A*B* Munc13-4 (D127N/D133N/D941N/D947N) (natural protein)
chain: B1 chain with D127N, D133N, D941N, D947N
binding result (native gel or EMSA): binds | binding result [1]: binds
